Source: PMC2217618 (Apoptosis, 2007)
[ ]: non-standard residue; d: D form.

Molecular target: αvβ3 integrin (human (endogenous in HUVEC), UniProt P06756;P05106)
Experiment: radioligand binding

Sequence of αvβ3 integrin (P06756 31-1048, chain 1 of 2): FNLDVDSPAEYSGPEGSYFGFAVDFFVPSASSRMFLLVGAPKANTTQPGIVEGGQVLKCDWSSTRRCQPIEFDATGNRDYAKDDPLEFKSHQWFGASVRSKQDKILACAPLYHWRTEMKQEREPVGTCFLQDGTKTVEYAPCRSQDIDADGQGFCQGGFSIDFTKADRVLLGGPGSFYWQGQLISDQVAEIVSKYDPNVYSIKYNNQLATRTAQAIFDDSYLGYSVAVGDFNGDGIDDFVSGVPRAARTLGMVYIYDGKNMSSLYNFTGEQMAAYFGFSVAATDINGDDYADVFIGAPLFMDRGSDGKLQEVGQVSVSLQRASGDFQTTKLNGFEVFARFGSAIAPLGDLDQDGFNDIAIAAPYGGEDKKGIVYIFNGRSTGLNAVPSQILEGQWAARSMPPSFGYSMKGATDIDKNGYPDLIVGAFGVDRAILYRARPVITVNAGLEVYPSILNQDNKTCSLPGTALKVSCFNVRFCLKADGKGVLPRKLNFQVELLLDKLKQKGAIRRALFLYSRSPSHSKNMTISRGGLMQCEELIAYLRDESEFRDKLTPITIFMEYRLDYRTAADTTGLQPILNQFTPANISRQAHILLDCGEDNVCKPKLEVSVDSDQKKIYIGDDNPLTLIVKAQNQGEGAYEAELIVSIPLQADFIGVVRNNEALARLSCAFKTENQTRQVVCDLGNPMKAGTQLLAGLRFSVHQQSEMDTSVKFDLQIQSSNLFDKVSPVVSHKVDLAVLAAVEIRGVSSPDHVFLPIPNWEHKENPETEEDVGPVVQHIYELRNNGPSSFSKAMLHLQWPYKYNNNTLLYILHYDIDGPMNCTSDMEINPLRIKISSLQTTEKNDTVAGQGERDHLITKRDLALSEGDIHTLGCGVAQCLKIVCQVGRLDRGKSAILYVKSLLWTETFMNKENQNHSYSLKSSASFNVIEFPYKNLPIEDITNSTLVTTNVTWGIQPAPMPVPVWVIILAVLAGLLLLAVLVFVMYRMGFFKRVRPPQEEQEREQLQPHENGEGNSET
Sequence of αvβ3 integrin (P05106 27-788, chain 2 of 2): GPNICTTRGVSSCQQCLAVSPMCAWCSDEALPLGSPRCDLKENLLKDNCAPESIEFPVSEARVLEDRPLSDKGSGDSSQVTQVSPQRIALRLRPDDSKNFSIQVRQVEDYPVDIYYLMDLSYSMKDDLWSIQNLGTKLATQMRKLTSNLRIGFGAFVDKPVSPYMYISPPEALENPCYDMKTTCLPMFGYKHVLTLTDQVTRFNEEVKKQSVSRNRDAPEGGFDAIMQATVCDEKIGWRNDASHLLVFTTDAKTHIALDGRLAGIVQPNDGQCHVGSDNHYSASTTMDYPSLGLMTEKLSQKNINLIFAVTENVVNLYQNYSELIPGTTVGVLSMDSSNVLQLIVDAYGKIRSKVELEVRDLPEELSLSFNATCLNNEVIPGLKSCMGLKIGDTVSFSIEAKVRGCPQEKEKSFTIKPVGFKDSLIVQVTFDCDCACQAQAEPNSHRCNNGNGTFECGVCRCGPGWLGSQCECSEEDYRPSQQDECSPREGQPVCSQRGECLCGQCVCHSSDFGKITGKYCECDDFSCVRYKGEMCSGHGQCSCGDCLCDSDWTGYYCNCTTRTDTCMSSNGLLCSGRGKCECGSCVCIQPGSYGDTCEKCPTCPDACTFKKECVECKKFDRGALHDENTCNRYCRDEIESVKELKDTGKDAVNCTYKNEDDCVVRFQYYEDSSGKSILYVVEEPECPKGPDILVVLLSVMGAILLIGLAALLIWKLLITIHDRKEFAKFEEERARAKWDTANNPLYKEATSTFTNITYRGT

Binder: cyclo(RGD[dF]K(S‑acetylthioacetyl)) [RGD peptide c(RGDf(ε-S-acetylthioacetyl)K)]
- IC50: 383 nM
